Test results from publication PMC5264654.

Experiments:
[1] = target: '3tag' PCNA^S228I (human) (UniProt P12004); test: SPR; reverse orientation: ~1000 RU biotinylated 3tag-PCNA on an SA chip; GST-PIP fusion as analyte, single cycle kinetics (Cdt1 highest 44.5 μM, p21 highest 27.9 μM); HBS-EP with 1 g/l BSA
[2] = target: GST-Fen1 PIP box fusion (UniProt P39748); test: SPR; ~1000 RU GST-PIP fusion bound to a CM5 chip (acetate pH 5.5), GST as control lane; His-S-PCNA as analyte, 10 point 2x dilution series from 12 μM; equilibrium of binding, steady state affinity fit; HBS-EP (0.01 M HEPES pH 7.4, 0.15 M NaCl, 3 mM EDTA, 0.0005% IGEPAL) with 1 g/l BSA; Biacore T200
Sequence of UniProt P39748 (P39748 whole entry, the tested form may be a part): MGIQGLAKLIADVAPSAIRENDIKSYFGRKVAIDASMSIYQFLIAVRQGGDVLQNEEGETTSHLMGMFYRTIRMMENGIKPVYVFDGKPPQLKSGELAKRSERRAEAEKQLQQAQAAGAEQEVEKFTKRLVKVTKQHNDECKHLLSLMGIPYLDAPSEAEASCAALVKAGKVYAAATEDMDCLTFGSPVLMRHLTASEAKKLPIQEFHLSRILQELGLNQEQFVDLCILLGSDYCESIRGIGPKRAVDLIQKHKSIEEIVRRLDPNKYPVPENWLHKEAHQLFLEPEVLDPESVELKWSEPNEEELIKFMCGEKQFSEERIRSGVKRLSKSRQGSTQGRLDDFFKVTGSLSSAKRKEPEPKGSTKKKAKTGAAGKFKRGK

[3] = target: GST-p21 PIP box fusion (UniProt P38936); test: as above
Sequence of UniProt P38936 (P38936 whole entry, the tested form may be a part): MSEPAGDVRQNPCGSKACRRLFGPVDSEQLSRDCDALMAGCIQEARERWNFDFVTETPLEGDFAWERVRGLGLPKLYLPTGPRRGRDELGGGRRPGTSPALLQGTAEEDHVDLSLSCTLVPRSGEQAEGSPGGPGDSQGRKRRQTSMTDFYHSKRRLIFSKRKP

For “GST-p21 PIP box fusion (from UniProt P38936 1-164) (domain or fragment)”, the reduction of the affinity against PCNA^WT [1] was 10%.
In the case of “His-S-tagged PCNA^S228I (from UniProt P12004 1-258) (natural protein)”, the Kd [2] is reported as 15000 nM and the Kd [3] is reported as 3700 nM.
“His-S-tagged PCNA^WT (from UniProt P12004 1-261) (natural protein)” showed a Kd [2] of 1100 nM and a Kd [3] of 1800 nM.
